Vagal-induced ERP shortening in the PLA, 3 days after minigene delivery (Gαi2ctp dogs vs. GαRp control dogs) and vagal-induced ERP shortening in the PLA, Gαo1ctp minigene given together with Gαi2ctp minigene (vs. Gαi2ctp alone) data for 2 substances are collected here from patent US20120329718A1.

This assay addresses M2 muscarinic acetylcholine receptor, endogenous, canine atrium (canine). Kind of assay: cell-based or functional assay.

Substance “Gαi2 C-terminal peptide expressed from a pFLAG CMV6a minigene (FLAG-tagged Gαi2ctp)” came in with a vagal-induced ERP shortening in the PLA, 3 days after minigene delivery (Gαi2ctp dogs vs. GαRp control dogs) of 19.5 ms.

Take “Gαo1 C-terminal peptide expressed from a pFLAG CMV6a minigene (Gαo1ctp)”: the vagal-induced ERP shortening in the PLA, Gαo1ctp minigene given together with Gαi2ctp minigene (vs. Gαi2ctp alone) was determined as 2.8 ms.
